The conditions of series [1]: mouse.
For series [2], the target named is MMP14 (Homo sapiens, UniProt P50281). Description: In vitro cleavability of activatable antibodies, capillary electrophoresis. It counts as biochemical.
In series [3] the test system is human bone marrow aspirates. In words: In situ stability in human bone marrow aspirates. Conditions: 20 μg/mL, 37° C., 21 or 24 hours; normalized to CM 2001 cleavage. The series is classed as in vitro ADME. The protocol: Fresh human bone marrow aspirates from healthy donors were purchased from Stemcell Technology Inc. (Catalog No. 70502) and AllCells Inc. and were processed to lyse red blood cells and washed 5 times with buffer or serum-free media. […] An equal volume of AF647-labeled c225 activatable antibodies prepared at 40 μg/mL in serum-free RPMI media were then added to form a mixture and incubated at a final concentration of 20 μg/mL at 37° C. for 21 or 24 hours. Cells were pelleted through centrifugation for 5 min at 300× g. Supernatants were collected from each incubated mixture and transferred into a well of a 96-well PCR plate for assay by capillary electrophoresis. Each supernatant sample was mixed with Pico Sample Buffer (Perkin Elmer) containing 2-beta-mercaptoethanol at four parts sample and one part of Pico Sample Buffer and then heated at 95° C. for 10 minutes. Substrate cleavage was measured by capillary electrophoresis using a LabChip GXII Touch system (Perkin Elmer) with the HT Pico Protein Express 100 protocol (Perkin Elmer). Protein Express Assay LabChips (Perkin Elmer #760499) were set up using the protocol of the Protein Pico Assay Reagent Kit (Perkin Elmer #760498).

In series [4] the test system is H292 (human lung cancer-derived cell line) subcutaneous xenograft tumors. In words: In vivo efficacy in mouse H292 xenograft model. Also on record: species or system nu/nu mice. Conditions: 9 mg/kg intraperitoneally on day 1, H292 xenograft. Here is the method: In this study, H292 (human lung cancer-derived cell line) subcutaneous xenograft tumors in female nu/nu mice of 6-8 weeks of age were grown to an average volume of 95-247 mm^3. […] The mice were then randomized into groups of 8 mice each and each group was dosed intraperitoneally on day 1 with 9 mg/kg of the indicated test article.

Series [5] concerns the target T1, MMP2 (Homo sapiens, UniProt P08253).
T1 sequence (P08253 110-660): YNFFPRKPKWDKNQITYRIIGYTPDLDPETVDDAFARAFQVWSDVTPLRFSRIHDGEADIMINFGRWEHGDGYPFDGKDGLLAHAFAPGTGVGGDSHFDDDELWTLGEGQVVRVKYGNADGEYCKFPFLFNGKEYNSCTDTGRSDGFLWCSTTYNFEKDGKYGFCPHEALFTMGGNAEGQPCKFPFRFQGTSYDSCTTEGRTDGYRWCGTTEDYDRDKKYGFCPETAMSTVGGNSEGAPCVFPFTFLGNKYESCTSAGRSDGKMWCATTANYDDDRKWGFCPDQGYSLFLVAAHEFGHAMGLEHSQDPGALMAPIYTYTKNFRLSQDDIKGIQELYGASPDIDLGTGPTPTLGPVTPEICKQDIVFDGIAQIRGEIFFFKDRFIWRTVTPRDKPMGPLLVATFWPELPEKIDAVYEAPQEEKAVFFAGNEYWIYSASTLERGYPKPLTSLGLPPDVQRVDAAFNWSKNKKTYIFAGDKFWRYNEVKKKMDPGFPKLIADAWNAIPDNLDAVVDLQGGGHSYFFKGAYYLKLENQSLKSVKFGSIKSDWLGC
Description: In vitro cleavability of activatable antibodies, capillary electrophoresis. The series is classed as biochemical. On the set-up: purchased R&D Systems 902-MP.

Where [6] appears, read: 500 nM activatable antibody, 10 nM protease, 4 hours at 37° C.
Setting [7] is: Tables 6A-6C, activatable antibody format.

With “APMGLKH [CM 7046, also tested as internally quenched peptide probe]”, the “in vivo stability versus control CMs” value in series [1] is given as “higher in vivo stability”. In addition, the “Cleavability (%) 4h MMP14” value in series [2] (setting [6]) is reported as 95.3%. In addition, in series [2] (setting [7]), the “percent activation for MMP14” value is “greater than 90%”. In addition, the “in situ cleavage in human bone marrow aspirates (FIG. 3)” value in series [3] is reported as “demonstrated a resistance to cleavage in situ in the bone marrow”. Moreover, the “in vivo efficacy (mean tumor volume, FIG. 2A)” value in series [4] is given as “comparable with the activatable antibody with the control CM 2001”. In series [5] (setting [6]), the “Cleavability (%) 4h MMP2” value worked out at 95.7%. The “percent activation for MMP2” value in series [5] (setting [7]) is reported as “greater than 90%”.

Values taken from patent US20260042849A1, “PROTEASE-CLEAVABLE MOIETIES AND METHODS OF USE THEREOF” (CytomX Therapeutics, Inc., priority 2022, published 2026).
